Data from PMC8937303 (Molecular Cell, 2022).
Values belong to the binder of their own block, whether it stands above or below them.

Assays:
SHP2_(2SH2) [1] = biological target: T1, SHP2_(2SH2) (UniProt Q06124 1-221); experiment: ITC
T1 sequence (looked up): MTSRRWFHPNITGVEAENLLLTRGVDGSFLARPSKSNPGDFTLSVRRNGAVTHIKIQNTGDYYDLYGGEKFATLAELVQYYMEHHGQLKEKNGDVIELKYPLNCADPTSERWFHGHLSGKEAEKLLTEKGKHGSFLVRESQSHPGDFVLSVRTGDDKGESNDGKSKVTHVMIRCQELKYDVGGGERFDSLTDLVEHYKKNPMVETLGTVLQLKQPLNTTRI

SHP2_(2SH2) [2] = biological target: T1, SHP2_(2SH2); experiment: pull-down
GST-SHP2 = biological target: T2, GST-SHP2 (UniProt Q06124 1-593); experiment: pull-down
T2 sequence (looked up): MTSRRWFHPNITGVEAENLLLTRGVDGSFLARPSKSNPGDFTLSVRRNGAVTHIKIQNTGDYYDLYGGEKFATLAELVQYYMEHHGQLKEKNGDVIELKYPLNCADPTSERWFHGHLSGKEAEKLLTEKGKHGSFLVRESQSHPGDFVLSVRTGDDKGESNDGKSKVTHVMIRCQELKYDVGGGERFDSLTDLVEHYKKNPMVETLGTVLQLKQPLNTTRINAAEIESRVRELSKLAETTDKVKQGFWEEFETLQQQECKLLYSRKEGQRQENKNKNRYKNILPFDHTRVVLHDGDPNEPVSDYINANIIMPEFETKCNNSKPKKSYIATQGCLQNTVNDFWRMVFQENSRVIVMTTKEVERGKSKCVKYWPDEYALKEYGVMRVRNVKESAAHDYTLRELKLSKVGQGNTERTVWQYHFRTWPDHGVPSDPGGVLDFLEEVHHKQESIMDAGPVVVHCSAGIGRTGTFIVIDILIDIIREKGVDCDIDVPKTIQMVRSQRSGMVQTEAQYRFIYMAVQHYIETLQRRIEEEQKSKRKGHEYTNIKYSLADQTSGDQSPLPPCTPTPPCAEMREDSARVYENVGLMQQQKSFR

Kd (SHP2_(2SH2) [1]): ~8 µM
stoichiometry N (SHP2_(2SH2) [1]): 1
B1: pFGFR2C58 (domain or fragment, UniProt P21802 764-821, looked up)
chain: TTNEEYLDLSQPLEQYSPSYPDTRSSCSSGDDSVFSPDPMPYEPCLPQYPHINGSVKT
modifications: tyrosine phosphorylated in vitro (sites not printed for the preparation)

binding result (SHP2_(2SH2) [2]): binds
B2: GST-pC58 (domain or fragment, UniProt P21802 763-821, looked up)
chain: LTTNEEYLDLSQPLEQYSPSYPDTRSSCSSGDDSVFSPDPMPYEPCLPQYPHINGSVKT
modifications: tyrosine phosphorylated in vitro

binding result (GST-SHP2): binds
B3: pFGFR2_(Cyto) (domain or fragment, UniProt P21802 400-821, looked up)
chain: MKNTTKKPDFSSQPAVHKLTKRIPLRRQVTVSAESSSSMNSNTPLVRITTRLSSTADTPMLAGVSEYELPEDPKWEFPRDKLTLGKPLGEGCFGQVVMAEAVGIDKDKPKEAVTVAVKMLKDDATEKDLSDLVSEMEMMKMIGKHKNIINLLGACTQDGPLYVIVEYASKGNLREYLRARRPPGMEYSYDINRVPEEQMTFKDLVSCTYQLARGMEYLASQKCIHRDLAARNVLVTENNVMKIADFGLARDINNIDYYKKTTNGRLPVKWMAPEALFDRVYTHQSDVWSFGVLMWEIFTLGGSPYPGIPVEELFKLLKEGHRMDKPANCTNELYMMMRDCWHAVPSQRPTFKQLVEDLDRILTLTTNEEYLDLSQPLEQYSPSYPDTRSSCSSGDDSVFSPDPMPYEPCLPQYPHINGSVKT
modifications: tyrosine phosphorylated in vitro (sites not printed for the preparation)
